# Measurements published in publication PMC10765524 (2023).
# Positions count from the first letter of the chain named.
# B1: B55 loopless (B55LL) (domain or fragment)
# chain: MAGAGGGNDIQWCFSQVKGAVDDDVAEADIISTVEFNHSGELLATGDKGGRVVIFQQEQENKIQSHSRGEYNVYSTFQSHEPEFDYLKSLEIEEKINKIRWLPQKNAAQFLLSTNDKTIKLWKISNGEASPRRIFANAHTYHINSISINSDYETYLSADDLRINLWHLEITDRSFNIVDIKPANMEELTEVITAAEFHPNSCNTFVYSSSKGTIRLCDMRASALCDRHSKLFEEPEDPSNRSFFSEIISSISDVKFSHSGRYMMTRDYLSVKIWDLNMENRPVETYQVHEYLRSKLCSLYENDCIFDKFECCWNGSDSVVMTGSYNNFFRMFDRNTKRDITLEASRENNKPRTVLKPRKVCASGKRKKDEISVDSLDFNKKILHTAWHPKENIIAVATTNNLYIFQDKVN
# Key:
# Experiment in all cases: FP
# [1] = biological target: T1, ARPP19 S104A as used in the fluorescence polarization assay (UniProt P56211 1-112, S104A)
# T1 sequence: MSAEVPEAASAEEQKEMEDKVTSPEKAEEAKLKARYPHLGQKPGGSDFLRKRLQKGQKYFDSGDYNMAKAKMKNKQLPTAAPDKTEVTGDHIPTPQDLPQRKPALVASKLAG
# [2] = biological target: FAM_(67-120)S120C (UniProt Q96E09 67-120, S120C, Alexa Fluor 488 C5 Maleimide label)
# [3] = biological target: T2, ARPP19(S10C) labelled with Alexa Fluor 488 (ARPP19-tracer) (UniProt P56211 1-112, S10C, Alexa Fluor 488 C5 Maleimide label)
# T2 sequence: T1 sequence with S10C, A104S
# [4] = biological target: FAM122AID(S120C) (FAM122AID-tracer) (UniProt Q96E09 29-120, S120C, Alexa Fluor 488 C5 Maleimide label (fluorescence polarization assay))
binder,measurement,setting,value
B1,Kd,[1],326 nM
same,Kd,[2],827 nM
same,Kd,[3],323 nM
same,Kd,[4],837 nM
